Publication PMC4983702

Biological target: Aar-MBP fusion protein (E. coli (EAEC 042))
Assay: SPR

B1: AggR-MBP fusion protein (natural protein)
chain: MKLKQNIEKEIIKINNIRIHQYTVLYTSNCTIDVYTKEGSNTYLRNELIFLERGINISVRLQKKKSTVNPFIAIRLSSDTLRRLKDALMIIYGISKVDACSCPNWSKGIIVADADDSVLDTFKSIDHNDDSRITSDLIYLISKIENNRKIIESIYISAVSFFSDKVRNTIEKDLSKRWTLAIIADEFNVSEITIRKRLESEYITFNQILMQSRMSKAALLLLDNSYQISQISNMIGFSSTSYFIRLFVKHFGITPKQFLTYFKSQ
  Kd: 20 to 40 nM
